B1: Mothers against decapentaplegic homolog 4 (Homo sapiens), Q13485 (parent)
chain: MDNMSITNTPTSNDACLSIVHSLMCHRQGGESETFAKRAIESLVKKLKEKKDELDSLITAITTNGAHPSKCVTIQRTLDGRLQVAGRKGFPHVIYARLWRWPDLHKNELKHVKYCQYAFDLKCDSVCVNPYHYERVVSPGIDLSGLTLQSNAPSSMMVKDEYVHDFEGQPSLSTEGHSIQTIQHPPSNRASTETYSTPALLAPSESNATSTANFPNIPVASTSQPASILGGSHSEGLLQIASGPQPGQQQNGFTGQPATYHHNSTTTWTGSRTAPYTPNLPHHQNGHLQHHPPMPPHPGHYWPVHNELAFQPPISNHPAPEYWCSIAYFEMDVQVGETFKVPSSCPIVTVDGYVDPSGGDRFCLGQLSNVHRTEAIERARLHIGKGVQLECKGEGDVWVRCLSDHAVFVQSYYLDREAGRAPGDAVHKIYPSAYIKVFDLRQCHRQMQQQAATAQAAAAAQAAAVAGNIPGPGSVGGIAPAISLSAAAGIGVDDLRRLCILRMSFVKGWGPDYPRQSIKETPCWIEIHLHRALQLLDEVLHTMPIADPQPLD
partner: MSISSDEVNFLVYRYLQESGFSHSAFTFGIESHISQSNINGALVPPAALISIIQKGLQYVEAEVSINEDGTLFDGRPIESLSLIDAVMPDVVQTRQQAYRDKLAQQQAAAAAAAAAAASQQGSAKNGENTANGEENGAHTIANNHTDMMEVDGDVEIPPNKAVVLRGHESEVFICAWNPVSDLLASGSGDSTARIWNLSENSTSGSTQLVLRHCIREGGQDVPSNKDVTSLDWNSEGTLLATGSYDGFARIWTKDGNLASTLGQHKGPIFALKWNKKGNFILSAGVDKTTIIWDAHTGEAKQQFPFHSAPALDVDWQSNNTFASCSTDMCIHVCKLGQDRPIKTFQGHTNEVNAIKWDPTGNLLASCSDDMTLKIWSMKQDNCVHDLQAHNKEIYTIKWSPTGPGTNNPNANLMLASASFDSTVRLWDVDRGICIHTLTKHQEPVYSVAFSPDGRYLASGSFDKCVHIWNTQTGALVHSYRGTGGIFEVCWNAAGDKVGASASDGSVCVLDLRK
B2: Mothers against decapentaplegic homolog 4 (Homo sapiens), Q13485 (parent)
chain: B1 chain
partner: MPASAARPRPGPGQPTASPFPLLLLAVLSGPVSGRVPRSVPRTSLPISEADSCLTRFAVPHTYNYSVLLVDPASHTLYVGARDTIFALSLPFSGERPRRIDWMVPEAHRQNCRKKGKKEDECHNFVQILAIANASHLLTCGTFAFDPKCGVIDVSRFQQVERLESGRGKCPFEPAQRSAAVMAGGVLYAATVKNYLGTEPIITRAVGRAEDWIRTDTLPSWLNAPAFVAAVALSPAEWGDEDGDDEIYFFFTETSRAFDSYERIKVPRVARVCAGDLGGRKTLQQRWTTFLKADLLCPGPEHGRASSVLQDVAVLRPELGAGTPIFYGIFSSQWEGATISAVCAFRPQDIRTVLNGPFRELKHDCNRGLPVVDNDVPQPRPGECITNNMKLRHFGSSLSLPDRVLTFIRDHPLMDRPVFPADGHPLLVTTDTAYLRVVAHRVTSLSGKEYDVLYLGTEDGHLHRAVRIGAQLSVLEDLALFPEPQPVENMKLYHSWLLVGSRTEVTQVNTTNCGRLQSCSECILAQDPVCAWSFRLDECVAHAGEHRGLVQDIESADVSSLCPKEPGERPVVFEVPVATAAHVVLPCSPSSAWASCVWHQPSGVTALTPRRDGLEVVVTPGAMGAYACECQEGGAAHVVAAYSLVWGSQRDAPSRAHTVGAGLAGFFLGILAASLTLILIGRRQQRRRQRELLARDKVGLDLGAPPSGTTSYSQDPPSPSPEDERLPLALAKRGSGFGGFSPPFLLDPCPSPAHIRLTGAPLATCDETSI
B3: Mothers against decapentaplegic homolog 4 (Homo sapiens), Q13485 (parent)
chain: B1 chain
partner: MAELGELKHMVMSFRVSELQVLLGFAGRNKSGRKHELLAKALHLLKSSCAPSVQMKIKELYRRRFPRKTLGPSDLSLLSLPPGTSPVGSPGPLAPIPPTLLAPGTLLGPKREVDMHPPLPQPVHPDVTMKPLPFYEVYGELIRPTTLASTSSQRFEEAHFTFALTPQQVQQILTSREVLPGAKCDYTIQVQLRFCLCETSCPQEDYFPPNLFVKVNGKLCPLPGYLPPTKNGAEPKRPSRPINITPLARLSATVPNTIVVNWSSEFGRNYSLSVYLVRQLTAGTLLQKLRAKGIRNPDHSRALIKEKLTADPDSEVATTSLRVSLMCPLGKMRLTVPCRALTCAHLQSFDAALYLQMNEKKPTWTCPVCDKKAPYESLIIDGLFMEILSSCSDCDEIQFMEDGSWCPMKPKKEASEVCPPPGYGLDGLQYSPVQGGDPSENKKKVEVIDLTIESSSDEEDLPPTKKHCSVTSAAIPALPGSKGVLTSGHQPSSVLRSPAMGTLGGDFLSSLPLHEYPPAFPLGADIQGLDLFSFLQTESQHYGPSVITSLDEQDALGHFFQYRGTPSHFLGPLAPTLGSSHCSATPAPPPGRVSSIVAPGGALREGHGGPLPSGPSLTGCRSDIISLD
B4: Mothers against decapentaplegic homolog 4 (Homo sapiens), Q13485 (parent)
chain: B1 chain
partner: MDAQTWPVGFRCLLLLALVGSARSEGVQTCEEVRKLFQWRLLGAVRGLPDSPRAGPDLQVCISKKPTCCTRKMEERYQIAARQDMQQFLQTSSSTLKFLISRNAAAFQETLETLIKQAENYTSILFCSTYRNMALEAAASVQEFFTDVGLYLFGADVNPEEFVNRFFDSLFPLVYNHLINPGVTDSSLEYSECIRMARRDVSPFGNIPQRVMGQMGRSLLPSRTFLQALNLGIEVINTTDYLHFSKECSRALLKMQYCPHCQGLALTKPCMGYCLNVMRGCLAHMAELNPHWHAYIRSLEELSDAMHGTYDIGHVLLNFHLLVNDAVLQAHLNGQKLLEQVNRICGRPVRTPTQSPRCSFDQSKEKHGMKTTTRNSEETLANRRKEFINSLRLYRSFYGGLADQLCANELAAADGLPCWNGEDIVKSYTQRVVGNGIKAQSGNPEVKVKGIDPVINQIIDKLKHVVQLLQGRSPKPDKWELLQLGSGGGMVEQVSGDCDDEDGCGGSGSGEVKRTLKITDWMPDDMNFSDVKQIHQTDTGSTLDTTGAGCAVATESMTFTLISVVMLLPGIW
B5: Mothers against decapentaplegic homolog 4 (Homo sapiens), Q13485 (parent)
chain: B1 chain
partner: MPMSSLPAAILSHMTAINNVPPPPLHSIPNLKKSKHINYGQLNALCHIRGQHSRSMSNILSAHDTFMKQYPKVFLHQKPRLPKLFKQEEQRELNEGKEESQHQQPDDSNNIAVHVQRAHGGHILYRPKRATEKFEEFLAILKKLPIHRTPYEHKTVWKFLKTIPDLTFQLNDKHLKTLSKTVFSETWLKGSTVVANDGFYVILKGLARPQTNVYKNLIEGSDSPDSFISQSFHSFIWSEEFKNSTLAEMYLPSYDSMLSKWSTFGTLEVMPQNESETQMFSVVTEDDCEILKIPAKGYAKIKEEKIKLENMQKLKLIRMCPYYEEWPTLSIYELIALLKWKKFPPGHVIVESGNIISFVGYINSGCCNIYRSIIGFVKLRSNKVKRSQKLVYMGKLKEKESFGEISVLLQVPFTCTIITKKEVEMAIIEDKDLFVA
B6: Mothers against decapentaplegic homolog 4 (Homo sapiens), Q13485 (parent)
chain: B1 chain
partner: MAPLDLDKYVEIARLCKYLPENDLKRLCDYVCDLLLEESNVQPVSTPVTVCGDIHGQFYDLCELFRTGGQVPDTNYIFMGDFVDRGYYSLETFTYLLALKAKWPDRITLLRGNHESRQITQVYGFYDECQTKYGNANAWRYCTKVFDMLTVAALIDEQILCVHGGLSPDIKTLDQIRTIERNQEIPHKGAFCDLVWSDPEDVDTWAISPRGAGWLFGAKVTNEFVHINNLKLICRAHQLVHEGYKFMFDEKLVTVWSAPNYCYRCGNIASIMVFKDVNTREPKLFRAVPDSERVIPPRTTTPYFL
B7: Mothers against decapentaplegic homolog 4 (Homo sapiens), Q13485 (parent)
chain: B1 chain
partner: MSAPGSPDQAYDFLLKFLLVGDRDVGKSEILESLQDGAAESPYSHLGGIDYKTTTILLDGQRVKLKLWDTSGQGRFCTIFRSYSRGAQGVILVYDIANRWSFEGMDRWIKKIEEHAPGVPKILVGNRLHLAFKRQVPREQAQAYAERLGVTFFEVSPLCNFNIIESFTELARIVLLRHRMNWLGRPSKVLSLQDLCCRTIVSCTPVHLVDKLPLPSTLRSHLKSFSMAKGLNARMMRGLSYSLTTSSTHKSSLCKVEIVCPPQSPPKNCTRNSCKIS
B8: Mothers against decapentaplegic homolog 4 (Homo sapiens), Q13485 (parent)
chain: B1 chain
partner: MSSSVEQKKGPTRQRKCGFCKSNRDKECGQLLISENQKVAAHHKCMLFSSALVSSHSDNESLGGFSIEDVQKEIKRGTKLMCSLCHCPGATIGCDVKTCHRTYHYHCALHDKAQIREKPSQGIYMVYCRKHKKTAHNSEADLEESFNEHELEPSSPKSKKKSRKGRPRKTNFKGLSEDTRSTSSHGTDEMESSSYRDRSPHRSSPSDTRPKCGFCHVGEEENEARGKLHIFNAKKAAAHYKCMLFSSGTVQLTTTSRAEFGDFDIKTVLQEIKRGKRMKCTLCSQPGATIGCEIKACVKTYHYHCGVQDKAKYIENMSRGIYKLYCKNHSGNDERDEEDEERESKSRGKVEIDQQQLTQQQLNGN
B9: Mothers against decapentaplegic homolog 4 (Homo sapiens), Q13485 (parent)
chain: B1 chain
partner: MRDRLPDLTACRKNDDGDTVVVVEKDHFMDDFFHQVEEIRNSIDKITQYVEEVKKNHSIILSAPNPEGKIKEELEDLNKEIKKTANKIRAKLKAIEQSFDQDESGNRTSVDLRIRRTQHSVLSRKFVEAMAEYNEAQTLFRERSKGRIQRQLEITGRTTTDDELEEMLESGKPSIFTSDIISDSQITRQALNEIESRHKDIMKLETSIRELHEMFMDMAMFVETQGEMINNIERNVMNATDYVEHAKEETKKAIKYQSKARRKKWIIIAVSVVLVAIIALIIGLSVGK

Variants of: B1
Conditions: with tbl1r_human TBL1XR1, Q9BZK7

Variant	effect of a mutation on the interaction
G386D	with no effect

Variants of: B2
Conditions: with sem4f_human SEMA4F

Variant	effect of a mutation on the interaction
G386D	with no effect

Variants of: B2
Conditions: with sem4f_human SEMA4F
Remark: another data set of the same source

Variant	effect of a mutation on the interaction
G386D	causing an interaction

Variants of: B2
Conditions: with sem4f_human SEMA4F
Remark: another data set of the same source

Variant	effect of a mutation on the interaction
R361C	with no effect

Variants of: B2
Conditions: with sem4f_human SEMA4F
Remark: another data set of the same source

Variant	effect of a mutation on the interaction
R361H	with no effect

Variants of: B3
Conditions: with pias3_human PIAS3, Q9Y6X2

Variant	effect of a mutation on the interaction
G386D	with no effect

Variants of: B3
Conditions: with pias3_human PIAS3, Q9Y6X2
Remark: another data set of the same source

Variant	effect of a mutation on the interaction
G386D	increasing interaction strength

Variants of: B4
Conditions: with gpc5_human GPC5, P78333

Variant	effect of a mutation on the interaction
G386D	with no effect

Variants of: B4
Conditions: with gpc5_human GPC5, P78333
Remark: another data set of the same source

Variant	effect of a mutation on the interaction
G386D	increasing interaction strength

Variants of: B4
Conditions: with gpc5_human GPC5, P78333
Remark: another data set of the same source

Variant	effect of a mutation on the interaction
R361H	with no effect

Variants of: B4
Conditions: with gpc5_human GPC5, P78333
Remark: another data set of the same source

Variant	effect of a mutation on the interaction
R361C	with no effect

Variants of: B5
Conditions: with cnbd1_human CNBD1, Q8NA66

Variant	effect of a mutation on the interaction
R361H	with no effect

Variants of: B6
Conditions: with ppp6_human PPP6C

Variant	effect of a mutation on the interaction
G386D	with no effect

Variants of: B6
Conditions: with ppp6_human PPP6C
Remark: another data set of the same source

Variant	effect of a mutation on the interaction
G386D	increasing interaction strength

Variants of: B6
Conditions: with ppp6_human PPP6C
Remark: another data set of the same source

Variant	effect of a mutation on the interaction
R361C	with no effect

Variants of: B7
Conditions: with rb40a_human RAB40A

Variant	effect of a mutation on the interaction
G386D	with no effect

Variants of: B8
Conditions: with phf6_human PHF6, Q8IWS0

Variant	effect of a mutation on the interaction
R361C	with no effect

Variants of: B9
Conditions: with stx2_human STX2, P32856

Variant	effect of a mutation on the interaction
G386D	with no effect

Source: IntAct's records for PubMed 35512704
